In patent US20050203281A1, “Production of recombinant fragments of muscle acetylcholine receptor and their use for ex vivo immunoadsorption of anti-ch receptor antibodies from myasthenic patients” (priority 2002, published 2005):
Entries after “also recorded” stand apart in the source; their conditions may differ.

Experiments:
alpha1-210 fragment = alpha1-210 fragment (Homo sapiens, UniProt P02708); conditions: read-out: concentration of unlabeled toxin giving 50% inhibition of 125I-alpha-BTX binding
[1] = test system: anti-AChR antibodies from MG sera; assay: Immunoadsorption of anti-AChR antibodies from MG sera by CNBr-Sepharose-immobilized subunit domains, RIA with human AChR from TE671 cells; format: binding; conditions: expressed in E. coli, refolded, similarly immobilized, same MG sera
[2] = test system: anti-AChR antibodies from MG sera; assay: as above; format: binding; conditions: for immunoadsorption of anti-AChR antibodies (in words): immobilized on Sepharose-CNBr
Procedure: FIG. 6 illustrates the immunoadsorption of anti-AChR antibodies from MG sera using immobilized alpha1-210 (black bars), gamma1-218 (grey bars) and epsilon1-219 (blank bars). Each subunit has been expressed in the yeast Pichia pastoris and the purified proteins have been covalently immobilized on CNBr-Sepharose beads. 64 MG positive sera were assayed for binding to human AChR after incubation with alpha1-210 immobilized on CNBr-Sepharose (together with BSA) or with just BSA immobilized on the same insoluble matrix. 2.5 ul of each MG patient serum were incubated with 0.2 ug immobilized alpha1-210 mixed with BSA or the same amount of BSA at […] for 2-3h (in a total volume of 0.16 ml) followed by centrifugation. Samples of the supernatants, each containing an amount corresponding to 0.9 ul of the treated MG sera were subsequently used in a typical RIA MG diagnostic test (Lindstrom et al., Meth. Enzymol. 74, 432460, 1981) with human AChR from TE671 cells. The percentage of immunoadsorption was estimated as described in the Example 3. Samples were processed in duplicates. Results shown (black bars) are an average of two experiments. Sera are sorted in decreasing percentage of immunoadsorption to immobilized alpha1-210.
FIG. 7 illustrates the immunoadsorption of anti-AChR antibodies from MG sera against immobilized alpha1-210 (black bars), gamma1-218 (gray bars) and a mix of both immobilized alpha1-210 and gamma1-218 (hatched bars). 9 MG sera were assayed for binding to human AChR after incubation of 20 fmoles anti-AChR MG antibodies with alpha1-210 (1 ug), or gamma1-218 (1 ug) or alpha1-210/gamma1-218 mix (containing 1 ug of each subunit) immobilized on CNBr-Sepharose. Incubation with just BSA immobilized to the same insoluble matrix served as a control to calculate the percent immunoadsorption against each of the subunits and the mix of both. After incubation with the Sepharose-immobilized proteins, sera were screened in a typical RIA experiment using TE671 AChR. The percentage of immunoadsorption was estimated as described in the Example 3. Samples were processed in duplicates. Results shown are an average of two experiments.
Immunoadsorption of MG autoantibodies by immobilized alpha1-210. 0.1 mg alpha1-210 mixed with 1.4 mg BSA was covalently bound to 0.5 gr CNBr-Sepharose according to manufacturer's protocol (Amersham). BSA was simply added to increase the protein/Sepharose ratio because the ratio of recombinant protein to Sepharose beads used would otherwise be too small; BSA is not necessary for larger scale experiments. In parallel, 1.5 mg BSA was bound to the same amount of CNBr-Sepharose under the same conditions as control. 2.5 ul MG patient sera were incubated with 0.2 ug immobilized alpha1-210 mixed with BSA, or the same amount of immobilized BSA alone, at 4° C. for 2-3 h (in a total volume of 0.16 ml) followed by centrifugation for bead precipitation. Samples of the supernatants, each containing an amount corresponding to 0.9 ul of these treated MG sera were subsequently used in a typical RIA MG diagnostic test (Lindstrom et al., Meth. Enzymol. 74, 432460, 1981) with human AChR from TE671 cells. The percentage of immunoadsorption was estimated as the ratio between the reduction in immunoprecipitated radiolabeled human AChR after incubation with alpha1-210 and the immunoprecipitated radiolabeled human AChR without incubation with alpha1-210 (incubation with plain immobilized BSA). 64 MG positive sera were assayed for binding to human AChR after incubation with immobilized alpha1-210 or BSA. […] We also tested immunoadsorption of the same set of MG sera by incubating 0.2 ug immobilized alpha1-210 with a fixed amount of anti-AChR antibodies (20 fmoles in variable volumes of MG sera depending on their titer) rather than a fixed serum volume.
Immunoadsorption of MG autoantibodies by immobilized gamma1-218 or epsilon1-219 domains. […]

[3] = test system: anti-AChR antibodies from MG sera; assay: Immunoadsorption of anti-AChR antibodies from MG sera by immobilized epsilon1-219, RIA with human AChR from TE671-epsilon cells; format: binding
Procedure: A subset of […] sera was also tested with gamma1-218 immobilized on CNBr-Sepharose (gray bars) and a subset of 22 sera was screened against epsilon1-219 immobilized on CNBr-Sepharose (blank bars) as described in the Example 3. Sera which have not been tested for immunoadsorption with epsilon1-219 are indicated in the X axis with open circles and sera which have not been tested on both gamma1-218 and epsilon1-219 are indicated with filled circles.
Immunoadsorption of MG autoantibodies by immobilized gamma1-218 or epsilon1-219 domains. 0.1 mg[…] of purified gamma1-218 or epsilon 1-219 mixed with 1.4 mg BSA was covalently immobilized on 1 gr of CNBr-Sepharose according to manufacturer's protocol. In parallel, an identical column was prepared with 1.5 mg BSA, to serve as control. Variable amounts of MG patient sera containing 20 fmoles of anti-AChR antibodies were incubated with 1 ug immobilized gamma1-218 mixed with BSA or the same amount of BSA at 4° C. for 2-3 h followed by centrifugation Samples of the supernatants, each containing an amount corresponding to 6 fmoles of preadsorbed anti-AChR antibody, were subsequently tested in a typical RIA MG diagnostic test as above. Sera which had been incubated with gamma1-218 were screened with the human AChR from TE671 cells (which contains alpha, beta, gamma and delta subunits) whereas sera immunoadsorbed with epsilon1-219 were screened with human AChR from TE671-epsilon cells(which contains alpha, beta, gamma and epsilon subunits) (Beeson et al., Neurology, 47,1552-1555, 1996). The percentage of immunoadsorption was estimated as above. Several MG sera from the group of the sera tested with immobilized alpha1-210 were assayed for binding to human AChR after incubation with immobilized gamma1-218 (43 sera) or epsilon1-219 (22 sera) or BSA only. Incubation with gamma1-218 led to a 29-56% reduction for 16% of the tested sera (7 sera out of 43), whereas it caused a 15%-30% reduction in another 28% of the tested sera (12 sera) (FIG. 6, gray bars). Other tested MG sera reached up to 68% immunoadsorption by gamma1-218 (not shown). […]

## alpha-bungarotoxin [alpha-BTX]
alpha1-210 fragment
  IC50: 5 nM

B1: alpha1-208: extracellular alpha domain of human AChR expressed in E. coli and refolded according to Tsouloufis et al. (protein)
chain: SEHETRLVAKLFKDYSSVVRPVEDHRQVVEVTVGLQLIQLINVDEVNQIVTTNVRLKQQWVDYNLKWNPDDYGGVKKIHIPSEKIWRPDLVLYNNADGDFAIVKFTKVLLQYTGHITWTPPAIFKSYCEIIVTHFPFDEQNCSMKLGTWTYDGSVVAINPESDQPDLSNFMESGEWVIKESRGWKHSV
[1]
  immunoadsorbing efficiency compared with yeast-expressed alpha domain: significant but much lower
[1]; listed as alpha-subunit fragment expressed in E. coli
  immunoadsorbing efficiency compared with yeast-expressed alpha domain: much lower level

B2: beta1-222: extracellular domain of human muscle AChR beta subunit, Pichia pastoris, FLAG and six-histidine tag (protein)
chain: DYKDDDDKMTPGALLMLLGALGAPLAPGVRGSEAEGRLREKLFSGYDSSVRPAREVGDRVRVSVGLILAQLISLNEKDEEMSTKVYLDLEWTDYRLSWDPAEHDGIDSLRITAESVWLPDVVLLNNNDGNFDVALDISVVVSSDGSVRWQPPGIYRSSCSIQVTYFPFDWQNCTMVFSSYSYDSSEVSLQTGLGPDGQGHQEIHIHEGTFIENGQWEIIHKPSRLIQPPG
modifications: glycosylated
[2]
  immunoadsorption of anti-AChR antibodies (in words): lower but very significant percentages

B3: gamma1-218: extracellular domain of human muscle AChR gamma subunit, Pichia pastoris, FLAG and six-histidine tag (protein)
chain: DYKDDDDKRNQEERLLADLMQNYDPNLRPAERDSDVVNVSLKLTLTNLISLNEREEALTTNVWIEMQWCDYRLRWDPRDYEGLWVLRVPSTMVWRPDIVLENNVDGVFEVALYCNVLVSPDGCIYWLPPAIFRSACSISVTYFPFDWQNCSLIFQSQTYSTNEIDLQLSQEDGQTIEWIFIDPEAFTENGEWAIQHRPAKMLLDPAAPAQEAGHQKVVFYLLIQRK
modifications: glycosylated
[2]; 16% of tested sera (7 of 43), 1 ug immobilized protein, 20 fmoles antibody
  reduction of anti-AChR antibodies, best-adsorbed sera: 29-56%
[2]; another 28% of tested sera (12 sera)
  reduction of anti-AChR antibodies, intermediate sera: 15%-30%
[2]
  immunoadsorption of anti-AChR antibodies (in words): lower but very significant percentages; also recorded: large fractions; also recorded: considerable amounts
[2]; other tested MG sera (not shown)
  maximal immunoadsorption in other tested MG sera: up to 68%
[2]; serum no. 3, 1 ug of each immobilized subunit, 20 fmoles antibody
  immunoadsorption of serum no. 3: 22%

B4: epsilon1-219 (protein)
chain: DYKDDDDKKNEELRLYHHLFNNYDPGSRPVREPEDTVTISLKVTLTNLISLNEKEETLTTSVWIGIDWQDYRLNYSKDDFGGIETLRVPSELVWLPEIVLENNIDGQFGVAYDANVLVYEGGSVTWLPPAIYRSVCAVEVTYFPFDWQNCSLIFRSQTYNAEEVEFTFAVDNDGKTINKIDIDTEAYTENGEWAIDFCPGVIRRHHGGATDGPGETDVIYSLIIRRK
modifications: glycosylated
[3]; 27% of screened sera (6/22)
  reduction of anti-AChR antibodies, best-adsorbed sera: 30-54%
[3]; another 45% of the sera (10/22)
  reduction of anti-AChR antibodies, intermediate sera: 15%-30%
[3]; immobilized on Sepharose-CNBr
  immunoadsorption of anti-AChR antibodies (in words): lower but very significant percentages; also recorded: considerable amounts
